Source: PMC7771633 (Cell, 2020)

Assays:
[1] = molecular target: T1, HeV-RBP head domain (Hendra virus receptor binding protein, residues 185 – 604) (Hendra virus, UniProt O89343); assay: ELISA
[2] = molecular target: full-length HeV-RBP expressed on the surface of mammalian cells (Hendra virus, UniProt O89343); assay: cell-based or functional assay
[3] = molecular target: full-length NiVM RBP expressed on the surface of mammalian cells (Nipah virus, strain Malaysia, UniProt Q9IH62); assay: cell-based or functional assay
[4] = molecular target: full-length NiVB RBP expressed on the surface of mammalian cells (Nipah virus, strain Bangladesh, UniProt Q4VCP5, strain); assay: flow cytometry on cells
[5] = molecular target: T1, HeV-RBP head domain (Hendra virus …); assay: BLI

T1 sequence (O89343 185-604): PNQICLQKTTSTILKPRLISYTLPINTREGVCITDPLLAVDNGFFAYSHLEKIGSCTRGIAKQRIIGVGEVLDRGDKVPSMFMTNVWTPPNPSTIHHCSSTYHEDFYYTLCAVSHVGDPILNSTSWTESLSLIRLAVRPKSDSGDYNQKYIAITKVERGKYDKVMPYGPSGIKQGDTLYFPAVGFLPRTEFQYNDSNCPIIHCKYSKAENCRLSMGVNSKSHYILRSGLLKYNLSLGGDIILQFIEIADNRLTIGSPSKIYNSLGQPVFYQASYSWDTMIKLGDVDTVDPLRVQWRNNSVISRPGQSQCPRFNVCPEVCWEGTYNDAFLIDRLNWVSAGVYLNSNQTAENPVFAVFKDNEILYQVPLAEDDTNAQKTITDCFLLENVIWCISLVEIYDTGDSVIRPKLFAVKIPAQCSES
Chain of full-length NiVM RBP expressed on the surface of mammalian cells (Q9IH62 whole entry): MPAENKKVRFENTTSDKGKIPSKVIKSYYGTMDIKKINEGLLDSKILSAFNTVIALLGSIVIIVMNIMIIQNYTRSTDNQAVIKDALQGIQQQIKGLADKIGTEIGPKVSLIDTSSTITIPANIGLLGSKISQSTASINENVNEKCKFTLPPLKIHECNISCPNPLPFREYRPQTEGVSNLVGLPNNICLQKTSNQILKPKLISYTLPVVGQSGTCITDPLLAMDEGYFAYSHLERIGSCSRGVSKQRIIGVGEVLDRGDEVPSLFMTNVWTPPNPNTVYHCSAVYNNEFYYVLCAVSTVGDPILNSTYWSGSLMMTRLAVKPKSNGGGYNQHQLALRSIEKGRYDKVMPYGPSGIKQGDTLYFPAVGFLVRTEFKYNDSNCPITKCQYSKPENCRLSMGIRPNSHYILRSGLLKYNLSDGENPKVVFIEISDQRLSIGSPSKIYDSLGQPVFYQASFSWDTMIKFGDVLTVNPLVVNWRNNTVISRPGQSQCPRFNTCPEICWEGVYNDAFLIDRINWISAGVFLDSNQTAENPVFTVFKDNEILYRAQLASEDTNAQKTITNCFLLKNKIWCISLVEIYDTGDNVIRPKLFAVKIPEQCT
Chain of full-length HeV-RBP expressed on the surface of mammalian cells (O89343 whole entry): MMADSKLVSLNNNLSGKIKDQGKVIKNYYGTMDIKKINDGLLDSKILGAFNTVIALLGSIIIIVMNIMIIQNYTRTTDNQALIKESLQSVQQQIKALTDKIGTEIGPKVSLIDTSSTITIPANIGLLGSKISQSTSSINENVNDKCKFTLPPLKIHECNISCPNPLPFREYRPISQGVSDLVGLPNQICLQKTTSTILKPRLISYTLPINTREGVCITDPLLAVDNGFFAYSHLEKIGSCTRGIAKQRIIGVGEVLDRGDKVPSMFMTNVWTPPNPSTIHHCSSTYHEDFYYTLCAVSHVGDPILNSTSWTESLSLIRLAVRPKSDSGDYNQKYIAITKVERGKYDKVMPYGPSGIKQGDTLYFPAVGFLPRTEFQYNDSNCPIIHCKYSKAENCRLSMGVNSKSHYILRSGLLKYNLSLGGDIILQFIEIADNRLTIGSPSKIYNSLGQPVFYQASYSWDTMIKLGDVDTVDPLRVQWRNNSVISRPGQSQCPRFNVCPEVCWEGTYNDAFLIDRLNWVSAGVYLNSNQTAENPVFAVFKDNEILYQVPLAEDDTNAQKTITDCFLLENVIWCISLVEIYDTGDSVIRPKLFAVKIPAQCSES

B1: HENV-32, human monoclonal antibody, IgG (antibody, V domains shown)
VH: QVQLVQSGAEVKKPGSSVKVSCKVSGGIFNRETINWVRQAPGQGLEWMGRITPIVDVPNYPRKFRGRVTITADKSTSTVYMELSGLRFEDTAIYFCARFRGHNYFDPWGQGTLVTVSS
VL: SYVLTQPPSVSVAPGQTARITCGGNNIGGKSVHWYQQKPGQAPVLVVYDDRDRPSGIPERFSGSNSGDTASLTISRVDAGDEADYFCQVWDNASDEAVFGGGTKLTVL
With B1 as the binder, how does the “Area under the curve” value [1] read?
Its value is 3.71.

And the “IC50 of neutralization of HeV (plaque reduction assay)” value [2]?
The value was 0.27 µg/mL.

What about the “IC50 of neutralization of NiVM (plaque reduction assay)” value [3] of the same binder?
Its value is 0.31 µg/mL.

B2: HENV-26, human monoclonal antibody, IgG (antibody, V domains shown)
VH: EVQLLESGGGLIQPGGSLRLSCAASGFTFSRFTMSWVRQPPGKGPEWVSGISGSGGHTYYADSVKGRFTISRDNSKNTLYLQMNSLKAEDTAVYYCAKDGFVGQQLMRRGPWWFDPWGQGTLVTVSS
VL: SYVLTQPPSVSVAPGQTARISCGGNNIGNKGVHWYQQKPGQAPVVVVYDDSDRPSGIPERFSGSNSGNTATLTISRVEAGDEADYYCQVWDSSSDHVVFGGGTKLTVL
For B2, which “Area under the curve” value [1] is on record?
Its value is 5.39.

Does B2 bind [4]?
Result: binds

B3: HENV-32 Fab (Fab, V domains shown)
VH: B1 VH
VL: B1 VL
Which Kd [5] does the source give for B3 here?
The Kd was 2.1 nM.
